The source of these data is patent US20200181261A1 (Bayer, published 2020).

The target of assay [1] is T1, Macaca fascicularis (cynomolgus) CEACAM6, full-length, on transfected HeLa cells (Macaca fascicularis, GPI anchor at the C-terminus on the cell surface, not carried by the letters).
T1 construct: also called TPP-4189; HeLa Cynomolgus CEACAM6
T1 chain: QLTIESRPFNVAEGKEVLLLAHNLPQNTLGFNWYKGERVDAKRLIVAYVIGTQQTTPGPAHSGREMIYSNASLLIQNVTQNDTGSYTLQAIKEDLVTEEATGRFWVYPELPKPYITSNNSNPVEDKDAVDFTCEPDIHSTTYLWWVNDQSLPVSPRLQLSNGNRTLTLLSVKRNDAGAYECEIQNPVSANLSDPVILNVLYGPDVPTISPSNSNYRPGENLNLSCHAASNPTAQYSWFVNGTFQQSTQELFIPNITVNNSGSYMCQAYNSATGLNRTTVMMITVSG
Briefly: FACS, transfected HeLa cells. On the procedure: (§1) For FACS experiments HeLa wild type cells were cultured in RPMI-1640, 10% FCS, while CEACAM-receptor transfected HeLa cells received in addition 0.5% Gentamycin (stock 10 mg/ml, Fa. PAA) and 200 μg/ml Hygromycin B (stock 50 mg/ml, Invitrogen). Cells were washed 3 times with PBS w/o Ca²⁺/Mg²⁺ and were detached from the culture plate non-enzymatically with EDTA dissociation buffer (Gibco). Cells were washed in cold FACS buffer (PBS w/o Ca²⁺/Mg²⁺ and heat-inactivated 3% FCS) and were counted using a countess machine (Invitrogen). 10⁵ cells per well were plated and incubated with the respective primary antibody (5 μg/ml) for 1 h at 4° C. on a plate shaker. […] After 2 times washing the cells were resuspended in 100 μl FACS buffer and were analysed on a FACS Canto II machine (Beckton Dickinson) or a FACS Array (Beckton Dickinson).
(§2) For EC₅₀ analysis, the primary antibodies were used at increasing concentrations in a range from 0.1 nM to 100 nM. Half maximal binding values (EC₅₀) were determined by plotting the median fluorescence intensity signal against the concentration (logarithmic scale). Curve fitting of data was performed using the Graph Pad prism analysis software.

The target of assay [2] is T2, human CEACAM3, full-length, on transfected HeLa cells (human, UniProt P40198 35-252).
T2 construct: also called TPP-4187; HeLa human CEACAM3
T2 sequence: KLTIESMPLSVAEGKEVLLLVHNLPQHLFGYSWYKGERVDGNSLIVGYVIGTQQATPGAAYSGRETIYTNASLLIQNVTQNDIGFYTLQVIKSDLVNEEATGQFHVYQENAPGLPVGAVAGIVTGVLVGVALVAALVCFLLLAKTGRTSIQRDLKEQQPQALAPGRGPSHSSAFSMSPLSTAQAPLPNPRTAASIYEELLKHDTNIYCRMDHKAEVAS
Put plainly: FACS, transfected HeLa cells. The method, then: as §1, §2

Assay [3] addresses T3, human CEACAM5, full-length, on transfected HeLa cells (human, UniProt P06731 35-685, GPI anchor at the C-terminus on the cell surface, not carried by the letters).
T3 construct: also called TPP-4188; HeLa human CEACAM5
T3 sequence: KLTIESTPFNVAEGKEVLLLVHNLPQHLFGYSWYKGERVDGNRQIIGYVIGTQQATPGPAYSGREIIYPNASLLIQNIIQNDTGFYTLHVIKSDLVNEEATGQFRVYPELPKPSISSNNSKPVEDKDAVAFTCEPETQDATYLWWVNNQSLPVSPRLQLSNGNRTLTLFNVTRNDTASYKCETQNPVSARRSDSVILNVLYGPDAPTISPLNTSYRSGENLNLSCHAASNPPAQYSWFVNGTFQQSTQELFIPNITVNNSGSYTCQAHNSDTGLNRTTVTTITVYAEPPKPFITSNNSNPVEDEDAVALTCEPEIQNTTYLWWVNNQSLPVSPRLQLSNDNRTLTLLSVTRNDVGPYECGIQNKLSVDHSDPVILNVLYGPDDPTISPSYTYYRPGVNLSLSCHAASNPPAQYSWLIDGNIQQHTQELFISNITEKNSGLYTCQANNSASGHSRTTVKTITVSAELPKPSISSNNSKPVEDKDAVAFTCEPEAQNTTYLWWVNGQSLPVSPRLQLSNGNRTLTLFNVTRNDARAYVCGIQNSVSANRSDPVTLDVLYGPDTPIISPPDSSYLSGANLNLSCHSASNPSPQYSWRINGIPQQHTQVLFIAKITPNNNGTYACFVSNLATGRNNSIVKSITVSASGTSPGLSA
Briefly: FACS, transfected HeLa cells. The method, then:
as §1, §2

In assay [4] the target is T4, Macaca fascicularis CEACAM6, extracellular (mature form), obtained by Factor Xa cleavage of TPP-2443 (Macaca fascicularis).
T4 construct: used biotinylated in some assays; also called APP-319; Cynomolgus CEACAM6
T4 chain: T1 chain
Put plainly: SPR, antibody captured, antigen as analyte. On the procedure: (§3) Surface plasmon resonance (SPR) experiments for quantitative binding analyses were performed either using a Biacore T100, Biacore T200 or a Biacore 4000 instrument (GE Healthcare Biacore, Inc.) equipped with Series S Sensor Chips CM5 (GE Healthcare Biacore, Inc.). Binding assays were carried out at 25° C. with assay buffer HBS-EP+(10 mM HEPES pH 7.4, 150 mM NaCl, 3 mM EDTA, 0.05% Surfactant P20). Antibodies were captured with an anti-hIgG capture antibody covalently immobilized to the chip surface via amine coupling chemistry. Reagents for amine coupling (1-ethyl-3-(3-dimethylaminopropyl) carbodiimide hydrochloride (EDC), N-hydroxysuccinimide (NHS), ethanolamine-HCl pH 8.5) were used from the Amine Coupling Kit (GE Healthcare, product code BR-1000-50). Anti-hIgG, anti-mIgG capture antibodies and immobilization buffer (10 mM sodium acetate pH 5.0) were used from the Human Antibody Capture Kit (GE Healthcare, BR-1008-39) and the Mouse Antibody Capture Kit (GE Healthcare, BR-1008-38), respectively. The sensor chip surface was activated with a freshly prepared solution of 0.2 M EDC and 0.05 M NHS passed over the chip surface for 420 s at a flow rate of 10 μl/min, followed by an injection of anti-hIgG or anti-mIgG capture antibody (dissolved to 25 μg/ml in immobilization buffer) for 180 s at a flow rate of […]. Excess of activated groups were blocked with a 1 molar solution of ethanolamine injected at a flow rate of 10 μl/min for 420 s.
(§4) CEACAM antigens were used as analyte to determine KD values. Antibodies were captured for 20 s at a flow rate of 10 μl/min prior to each analyte injection.
(§5) Obtained sensorgrams were double-referenced, i.e. in-line reference cell correction followed by buffer sample subtraction.
Background: In SPR one partner is held on a chip, and binding of the other changes the refractive index at the surface.

Assay [5] has as its target T5, human CEACAM3, extracellular (mature form), Sino Biological Inc. 11933-H08H (human, UniProt P40198 35-155).
T5 construct: used biotinylated in some assays; also called TPP-2755
T5 sequence: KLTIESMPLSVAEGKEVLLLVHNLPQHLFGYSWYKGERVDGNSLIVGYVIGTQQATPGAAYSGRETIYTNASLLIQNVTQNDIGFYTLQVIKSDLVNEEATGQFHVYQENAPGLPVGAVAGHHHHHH
Briefly: SPR, antibody captured, antigen as analyte. The method, then: as §3, §4, §5

Residue numbers refer to the chain shown, from its start.

B1: TPP-3821 (antibody, human IgG2, kappa, V domains shown)
VH: QVTLRESGPALVKPTQTLTLTCTFSGFSLSTYGIGVGWIRQPPGKALEWLAHIWWNDNKYYSTSLKTRLTISKDTSKNQVVLTMTNMDPVDTATYYCARISLPYFDYWGQGTLVTVSS
VL: DIQLTQSPSFLSASVGDRVTITCKASQNVGTAVAWYQQKPGKAPKLLIYSASNRYTGVPSRFSGSGSGTEFTLTISSLQPEDFATYYCQQYNNYPLTFGGGTKVEIKR
notes: humanized from TPP-3187, human IgG2; also called 3187HU2-hIgG2Kappa
Broadly, the EC50 is the concentration needed to bring the measured effect to its halfway point. Read a low EC50 as an effect from little substance. In general, Kd refers to a measure of binding affinity in units of concentration. In the case of B1, in assay [1], the midpoint of the response, the EC50, lay at 1 nM. The binding result in assay [2] was “no binding (tested: 5 µg/ml)”; in assay [3] it was “no binding (tested: 5 µg/ml)”; in assay [5] it was “no binding (tested: 200 nM)”. In assay [4], this molecule returned a Kd of 49 nM.

B2: TPP-3820 (antibody, human IgG2, kappa, V domains shown)
VH: B1 VH with S30T, A46G
VL: B1 VL
notes: humanized from TPP-3187, human IgG2; also called 3187HU1-hIgG2Kappa
The molecule B2 displayed an EC50 in assay [1] of 1 nM. Besides, the binding result was “no binding (tested: 5 µg/ml)” in assay [2], “no binding (tested: 5 µg/ml)” in assay [3] and “no binding (tested: 200 nM)” in assay [5]. The same molecule showed a dissociation constant Kd in assay [4] of 54 nM.

B3: TPP-3310 (antibody, human IgG2, kappa)
heavy: QVTLRESGPALVKPTQTLTLTCTFSGFSLSTYGIGVGWIRQPPGKALEWLAHIWWNDNKYYSTSLKTRLTISKDTSKNQVVLTMTNMDPVDTATYYCARISLPYFDYWGQGTTLTVSSASTKGPSVFPLAPCSRSTSESTAALGCLVKDYFPEPVTVSWNSGALTSGVHTFPAVLQSSGLYSLSSVVTVPSSNFGTQTYTCNVDHKPSNTKVDKTVERKCCVECPPCPAPPVAGPSVFLFPPKPKDTLMISRTPEVTCVVVDVSHEDPEVQFNWYVDGVEVHNAKTKPREEQFNSTFRVVSVLTVVHQDWLNGKEYKCKVSNKGLPAPIEKTISKTKGQPREPQVYTLPPSREEMTKNQVSLTCLVKGFYPSDIAVEWESNGQPENNYKTTPPMLDSDGSFFLYSKLTVDKSRWQQGNVFSCSVMHEALHNHYTQKSLSLSPG
light: DIQLTQSPSFLSASVGDRVTITCKASQNVGTAVAWYQQKPGKAPKLLIYSASNRYTGVPSRFSGSGSGTEFTLTISSLQPEDFATYYCQQYSSYPLTFGGGTKVEIKRTVAAPSVFIFPPSDEQLKSGTASVVCLLNNFYPREAKVQWKVDNALQSGNSQESVTEQDSKDSTYSLSSTLTLSKADYEKHKVYACEVTHQGLSSPVTKSFNRGEC
notes: humanized from TPP-2971, human IgG2; also called TPP-2971HU1-hIgG2Kappa
As to B3, in assay [1], the EC50 turned out to be 1.5 nM. In addition, the binding result was “no binding (tested: 5 µg/ml)” in assay [2], “no binding (tested: 5 µg/ml)” in assay [3] and “no binding (tested: 200 nM)” in assay [5]. The affinity in assay [4], expressed as Kd, was 31 nM.

B4: TPP-3187 (antibody, mouse IgG1, V domains shown)
VH: QVTLKESGPGILQPSQTLSLTCSFSGFSLTTYGIGVGWIRQPSGKGLEWLAHIWWNDNKYYNTALKSRLTISKDTSNNQVFLKIASVDTADTATYYCARISLPYFDYWGQGTTLTVSS
VL: DIVMTQSQKFMSTSVGDRVSITCKASQNVGTAVAWYQQKPGQSPKLLIYSASNRYTGVPDRFTGSGSGTDFTLTISNMQSEDLADYFCQQYNNYPLTFGAGTKLELK
notes: murine hybridoma antibody, mouse IgG1; also called 792.15C4F4
Molecule B4 showed a concentration for a half-maximal effect (EC50) in assay [1] of 4 nM. For the same molecule, the FACS median fluorescence in assay [1] was 100 to 1000 medianfluorescence. For the same molecule, the binding result in assay [2] is given as “no binding (tested: 5 µg/ml)”; in assay [3], “no binding (tested: 5 µg/ml)”; in assay [5] it was “no binding (tested: 200 nM)”.

B5: TPP-3323 (antibody, human IgG2, kappa, V domains shown)
VH: B4 VH
VL: DIVMTQSQKFMSTSVGDRVSITCKASQNVGTAVAWYQQKPGQSPKLLIYSASNRYTGVPDRFTGSGSGTDFTLTISNMQSEDLADYFCQQYNNYPLTFGAGTKLELKR
notes: human IgG2 chimera; also called TPP-3187X1-hIgG2; hIgG2 chimera of TPP-3187
For B5, in assay [1], the midpoint of the response, the EC50, lay at 0.8 nM. In addition, the FACS median fluorescence in assay [1] lay within 100 to 1000 medianfluorescence. The binding result in assay [2] and in assay [3] was “no binding (tested: 5 µg/ml)” in each case.

B6: TPP-3308 (antibody, human IgG2, kappa, V domains shown)
VH: B4 VH with T30S, G46D
VL: B5 VL with N92S, N93S
notes: human IgG2 chimera; also called TPP-2971X1-hIgG2Kappa; hIgG2 chimera of TPP-2971
For the molecule B6, in assay [1], the response was half-maximal at 0.6 nM (EC50). For the same molecule, in assay [1], the FACS median fluorescence lay in the range of 100 to 1000 medianfluorescence. For the same molecule, the binding result in assay [2] and in assay [3] was “no binding (tested: 5 µg/ml)” each time.

B7: TPP-3705 (antibody, human IgG2, kappa, V domains shown)
VH: EVQLVESGGGLVQPGGSLRLSCAASGFTFSLYQMHWVRQAPGKGLEWVSWISFSGGNTGYADSVKGRFTISRDNSKNTLYLQMNSLRAEDTAVYYCARATGYSSPWYLDPWGQGTLVTVSS
VL: DIQMTQSPSSLSASVGDRVTITCQASHEIDNYLNWYQQKPGKAPKLLIYDAYWLKTGVPSRFSGSGSGTDFTLTISSLQPEDIATYYCQGYDDLSVTFGGGTKVDIKR
notes: also called 090E-M007-A09-Mat1-hIgG2-hIgG2Kappa
B7 displayed a dissociation constant Kd in assay [4] of 32 nM.

B8: TPP-3707 (antibody, human IgG2, kappa, V domains shown)
VH: B7 VH
VL: B7 VL with L54S
notes: also called 090E-M007-A09-Mat2-hIgG2-hIgG2Kappa
In the case of B8, the concentration giving a half-maximal response (EC50) in assay [1] worked out at 4 nM. Further, in assay [3], the binding result is listed as “no binding (tested: 5 µg/ml)”. In addition, in assay [4], the affinity, expressed as Kd, was 32 nM.
